# Test results from the Immune Epitope Database (IEDB).
# Key:
# HLA-B*45:06 = assay: IEDB peptide-MHC binding, purified MHC/competitive/fluorescence; filed as Kd, often an IC50 or EC50 that approximates it; ≥ and ≤ were set here for values at or beyond the usual limits of such assays
# HLA-B*15:42 = assay: as above
# HLA-B*83:01 = assay: as above
# HLA-A*32:07 = assay: as above; conditions: source organism: Influenza A virus (A/Fort Monmouth/1/1947-mouse adapted(H1N1))
# HLA-A*68:23 = assay: as above; conditions: source organism: Influenza A virus (A/Fort Monmouth/1/1947-mouse adapted(H1N1))
# HLA-A*32:15 = assay: as above; conditions: source organism: Influenza A virus (A/Fort Monmouth/1/1947-mouse adapted(H1N1))
# HLA-B*57:01 = assay: IEDB peptide-MHC binding, purified MHC/direct/fluorescence; filed as Kd, often an IC50 or EC50 that approximates it; ≥ and ≤ were set here for values at or beyond the usual limits of such assays
# HLA-B*58:01 = assay: as above
# HLA-B*15:17 = assay: as above
# HLA-C*15:02 = assay: as above
# HLA-A*02:01 [1] = assay: IEDB peptide-MHC binding, cellular MHC/competitive/fluorescence; ≥ and ≤ were set here for values at or beyond the usual limits of such assays; conditions: source organism: Homo sapiens
# HLA-A*26:01 = assay: IEDB peptide-MHC binding, purified MHC/competitive/fluorescence; filed as Kd, often an IC50 or EC50 that approximates it; ≥ and ≤ were set here for values at or beyond the usual limits of such assays; conditions: source organism: Francisella tularensis subsp. tularensis FSC198
# HLA-A*02:19 = assay: IEDB peptide-MHC binding, purified MHC/direct/fluorescence; filed as Kd, often an IC50 or EC50 that approximates it; ≥ and ≤ were set here for values at or beyond the usual limits of such assays; conditions: source organism: Francisella tularensis subsp. tularensis FSC033
# HLA-A*29:02 [2] = assay: as above; conditions: source organism: Francisella tularensis subsp. tularensis FSC033
# HLA-A*24:03 = assay: as above; conditions: source organism: Francisella tularensis subsp. tularensis FSC033
# HLA-B*07:02 = assay: as above
# HLA-A*23:01 = assay: as above; conditions: source organism: Francisella tularensis subsp. tularensis FSC033
# HLA-A*30:01 = assay: as above; conditions: source organism: Francisella tularensis subsp. tularensis FSC033
# HLA-A*02:50 = assay: as above; conditions: source organism: Francisella tularensis subsp. tularensis FSC033
# HLA-B*40:01 = assay: as above; conditions: source organism: Francisella tularensis subsp. tularensis FSC033
# HLA-B*18:01 = assay: as above; conditions: source organism: Francisella tularensis subsp. tularensis FSC033
# HLA-B*51:01 = assay: as above; conditions: source organism: Francisella tularensis subsp. tularensis FSC033
# HLA-B*44:02 = assay: as above; conditions: source organism: Francisella tularensis subsp. tularensis FSC033
# HLA-A*29:02 [3] = assay: IEDB peptide-MHC binding, purified MHC/competitive/fluorescence; filed as Kd, often an IC50 or EC50 that approximates it; ≥ and ≤ were set here for values at or beyond the usual limits of such assays; conditions: source organism: Homo sapiens
# HLA-C*06:02 [4] = assay: as above; conditions: source organism: Homo sapiens
# HLA-A*01:01 [5] = assay: as above; conditions: source organism: Homo sapiens
# HLA-C*14:02 [6] = assay: as above; conditions: source organism: Homo sapiens
# HLA-A*80:01 = assay: IEDB peptide-MHC binding, purified MHC/direct/fluorescence; filed as Kd, often an IC50 or EC50 that approximates it; ≥ and ≤ were set here for values at or beyond the usual limits of such assays; conditions: source organism: Mus musculus
# HLA-B*15:09 = assay: IEDB peptide-MHC binding, purified MHC/competitive/fluorescence; filed as Kd, often an IC50 or EC50 that approximates it; ≥ and ≤ were set here for values at or beyond the usual limits of such assays; conditions: source organism: Influenza A virus (A/swine/Italy/1509-6/97(H1N1))
# HLA-B*39:01 = assay: as above; conditions: source organism: Influenza A virus (A/swine/Italy/1509-6/97(H1N1))
# HLA-A*26:03 = assay: as above; conditions: source organism: Influenza A virus (A/swine/Italy/1509-6/97(H1N1))
# HLA-A*68:02 = assay: as above; conditions: source organism: Influenza A virus (A/swine/Italy/1509-6/97(H1N1))
# HLA-B*08:01 = assay: as above; conditions: source organism: Influenza A virus (A/swine/Italy/1509-6/97(H1N1))
# HLA-A*26:02 = assay: as above; conditions: source organism: Influenza A virus (A/swine/Italy/1509-6/97(H1N1))
# HLA-A*02:11 = assay: IEDB peptide-MHC binding, purified MHC/direct/fluorescence; filed as Kd, often an IC50 or EC50 that approximates it; ≥ and ≤ were set here for values at or beyond the usual limits of such assays; conditions: source organism: Influenza A virus(A/swine/Henan/8/2004(H9N2))
# HLA-B*15:02 = assay: as above; conditions: source organism: Influenza A virus(A/swine/Henan/8/2004(H9N2))
# HLA-A*03:01 = assay: as above; conditions: source organism: Influenza A virus (A/New Caledonia/20/1999(H1N1))
# HLA-A*11:01 = assay: as above; conditions: source organism: Influenza A virus (A/New Caledonia/20/1999(H1N1))
# HLA-C*06:02 [7] = assay: as above; conditions: source organism: Influenza A virus (A/swine/Italy/1509-6/97(H1N1))
# HLA-B*46:01 = assay: as above; conditions: source organism: Influenza A virus (A/New Caledonia/20/1999(H1N1))
# HLA-A*31:01 = assay: as above; conditions: source organism: Influenza A virus (A/New Caledonia/20/1999(H1N1))
# HLA-A*01:01 [8] = assay: as above; conditions: source organism: Influenza A virus (A/New Caledonia/20/1999(H1N1))
# HLA-B*15:01 = assay: as above; conditions: source organism: Influenza A virus (A/New Caledonia/20/1999(H1N1))
# HLA-B*08:03 = assay: as above; conditions: source organism: Influenza A virus(A/swine/Henan/8/2004(H9N2))
# HLA-B*27:05 = assay: as above; conditions: source organism: Influenza A virus (A/New Caledonia/20/1999(H1N1))
# HLA-A*02:01 [9] = assay: as above; conditions: source organism: Influenza A virus (A/New Caledonia/20/1999(H1N1))
# HLA-B*48:01 = assay: as above; conditions: source organism: Influenza A virus (A/New Caledonia/20/1999(H1N1))
# HLA-A*69:01 = assay: as above; conditions: source organism: Influenza A virus (A/New Caledonia/20/1999(H1N1))
# HLA-C*14:02 [10] = assay: as above; conditions: source organism: Influenza A virus (A/swine/Italy/1509-6/97(H1N1))
# [11] = source organism: Influenza A virus (A/Fort Monmouth/1/1947-mouse adapted(H1N1))
# [12] = source organism: Influenza A virus (A/finch/Canada/NS1301/2001(H3N8))
# [13] = source organism: Francisella tularensis subsp. tularensis FSC033
# [14] = source organism: Influenza A virus (A/New Caledonia/20/1999(H1N1))
sequence,measurement,setting,value
GTFEFTSFF,Kd,HLA-B*45:06; [11],≥ 5000 nM
same,Kd,HLA-B*15:42; [11],≥ 5000 nM
same,Kd,HLA-B*83:01; [11],≥ 5000 nM
same,Kd,HLA-A*32:07,23.8 nM
same,Kd,HLA-A*68:23,5.7 nM
same,Kd,HLA-A*32:15,893 nM
same,Kd,HLA-B*57:01; [12],360 nM
same,Kd,HLA-B*58:01; [12],496 nM
same,Kd,HLA-B*15:17; [12],5.9 nM
same,Kd,HLA-C*15:02; [11],3660 nM
LLLDVPTAAVQA,IC50,HLA-A*02:01 [1],1890 nM
NTIEELSGY,Kd,HLA-A*26:01,0.6 nM
same,Kd,HLA-B*57:01; [13],≥ 20000 nM
same,Kd,HLA-A*02:19,≥ 20000 nM
same,Kd,HLA-A*29:02 [2],28 nM
same,Kd,HLA-A*24:03,≥ 20000 nM
same,Kd,HLA-B*07:02; [13],≥ 20000 nM
same,Kd,HLA-A*23:01,≥ 20000 nM
same,Kd,HLA-A*30:01,≥ 20000 nM
same,Kd,HLA-A*02:50,≥ 20000 nM
same,Kd,HLA-B*58:01; [13],≥ 20000 nM
same,Kd,HLA-B*40:01,≥ 20000 nM
same,Kd,HLA-B*18:01,≥ 20000 nM
same,Kd,HLA-B*51:01,≥ 20000 nM
same,Kd,HLA-B*44:02,≥ 20000 nM
TFMDHVLRY,Kd,HLA-B*45:06; source organism: Homo sapiens,≥ 5000 nM
same,Kd,HLA-A*29:02 [3],≤ 0.1 nM
same,Kd,HLA-B*15:42; source organism: Homo sapiens,≥ 5000 nM
same,Kd,HLA-C*06:02 [4],663 nM
same,Kd,HLA-B*83:01; source organism: Homo sapiens,≥ 5000 nM
same,Kd,HLA-A*01:01 [5],1400 nM
same,Kd,HLA-C*14:02 [6],0.4 nM
same,Kd,HLA-A*80:01,109 nM
WMACHSAAF,Kd,HLA-B*15:09,600 nM
same,Kd,HLA-B*39:01,59.5 nM
same,Kd,HLA-A*26:03,158 nM
same,Kd,HLA-A*68:02,929 nM
same,Kd,HLA-B*08:01,77.2 nM
same,Kd,HLA-A*26:02,0.4 nM
same,Kd,HLA-A*02:11,60 nM
same,Kd,HLA-B*15:02,5 nM
same,Kd,HLA-B*57:01; [14],≥ 20000 nM
same,Kd,HLA-A*03:01,≥ 20000 nM
same,Kd,HLA-A*11:01,≥ 20000 nM
same,Kd,HLA-B*07:02; [14],9800 nM
same,Kd,HLA-C*06:02 [7],≥ 20000 nM
same,Kd,HLA-B*46:01,756 nM
same,Kd,HLA-B*58:01; [14],≥ 20000 nM
same,Kd,HLA-B*15:17; [14],189 nM
same,Kd,HLA-A*31:01,≥ 20000 nM
same,Kd,HLA-C*15:02; source organism: Influenza A virus (A/swine/Italy/1509-6/97(H1N1)),≥ 20000 nM
same,Kd,HLA-A*01:01 [8],≥ 20000 nM
same,Kd,HLA-B*15:01,18 nM
same,Kd,HLA-B*08:03,83 nM
same,Kd,HLA-B*27:05,6300 nM
same,Kd,HLA-A*02:01 [9],≥ 20000 nM
same,Kd,HLA-B*48:01,1430 nM
same,Kd,HLA-A*69:01,≥ 20000 nM
same,Kd,HLA-C*14:02 [10],43 nM
